In patent US20100184652A1:

Molecular target: pY213 peptide (14-residue Abi1 peptide containing phosphorylated tyrosine 213) (human)
Assay: SPR (Biacore 3000), biotinylated pY213 on streptavidin chip, GST-Abl SH2 injected, 1:1 model

## GST-Abl SH2 domain fusion protein (from UniProt P00519 146-236)
  Kd: 33.2 nM
